Data: the domain aggregation screens of Martell et al. (2025)

Experiment: soluble fraction after stress (log2 fold change); higher = more stays soluble; pooled small domains, quantitative proteomics
Conditions: stress: pH 4
Outline: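 Pooled custom libraries of small protein domains were stressed at pH 4 and then measured by high-throughput quantitative proteomics. The fold change in the amount of each domain that stays soluble after the acid stress serves as a measure of aggregation propensity. Fold changes are given on a log2 scale, and higher values mean more of the domain stayed soluble.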

| Sequence | soluble fraction (log2) |
| --- | --- |
| HMASMHDGVAARLRAMVFERELAPGEFIDERRLAQQWQISRTPLREALKVLAAEGLVELVPRRGARVV | -0.275 |
| HMASPKEALWRSLAEEPDTWWDNRERKSQPGANPRSPDFKHKESGEALWIESRDTPTWVLETL | -1.5 |
| HMASQEESVATYIQDYYRNPKTGESMVSDDMVEEFYKTHPEWEDQADGSKEGMEAVLDNFNEFFEINYG | -0.136 |
| HMASSRPLAEGDFVRLRAGGATGRIESIKGQKATVQMGGLKVHAPLRDLLPVAEPIKQVSTASNT | 0.203 |
| HMASVAKHIRRLRTERHMTQGDLAEKLFVTRQTVSAWETGKAQPDLETLERIAVVLGVEVTELIYGAP | -0.537 |
| HMASVVEQVQVSNDISLFRQQNSPYWQARFKVAGKWYTRTTKRTEQTQAAFRAAELRSEVQTKISQGIPLR | -0.00738 |
| HMATESYYVLKADVPAKTLVTQEMVEEIKVSKGGAPVNSIKIDNIKEKGVYTSIPLLKGDVLSASNTG | -0.358 |
| HMATKVSSGATVRDVADLLGLSSAELIKKLMMMGEMATLTQTLTDESIKSIADEYDRKIEIVSAAE | -1.22 |
| HMATNVLEISTRNKNILIQDSLNLVESFYSKSDNQYWYKLVFKTKDDLNKFLQEVSEDENTITYKTSSI | -0.194 |
| HMATPEINNLGRLRNAINQSNVNWHQIIKRLQNEYPNNWRQILIAIDRHDLLFRYDVENYIKYG | -0.855 |
| HMATPIAGTKYTLNNTPVYGTEKGPSIGKRSGIYYTWDATVRNGRIRMTNSPARVGVPWQVSFWVEVNKL | -0.195 |
| HMATPRLAIVPQSAAGRRLDAVLAELFPEYSRSRLSAWIKTGDVMVDGAAPRGRDPVRGGEEITLTAVQ | 0.113 |
| HMATPTEHQLQAQARAVVEKAERLLDRASADDREDIINLIEKITDALAAEDFTAVKAPLAELSDILFYLE | -0.27 |
| HMATPTMEDYIEVIYSLVKTKGYARSADIAEKLEVYPSTVTKMLKKLDAEGYIVYEKYRGIALTDIGKKMG | -0.189 |
| HMATSNGEFVIPDGGLQFEELERSLLMQALKKSGGSQTGAARLLGLSRDTLRYRLEKFGIDAAAVRE | -0.149 |
| HMATVTVPNLKGMTPSGAESALAELNLKGAVGDSVESNDVENGKVASQDQAAGSDAKEGDTITYHLSS | -0.103 |
| HMATYETEVISGVNLRSAPNTSASVYRLLSKGEDIHVIQKVNDYWLKVQTKDGKIGYISASSKYTNYIA | -0.132 |
| HMAVEETFTITWLDRDGTVLEVDENVLKGTMPSFDGHIPPHDGLEFKGWDPEVVPVEGDATYTATYKA | -0.454 |
| HMAVENTGLSKRELEILQMMARGMSNQEIGDALFISLSTVKTHVASIFSKLQAVRRTQAVGIAKSLKII | -0.367 |
| HMAVFSKKQIFDTAFALFESKGLEAITARNLGKALSSSPAPIYAHYSSITELKNELISVAKDR | -0.692 |
| HMAVGDMISKLRTAANMSQEQFAELFGVTRQSVQKWENSFSVPELEKLIKISKYFDVSLDALVLRSDARVT | -1.32 |
| HMAVLFFVKRGERILGPTRLADLFQHAASGRLRANDLVGESPKGPWLPARQLDELEDAWASSRDATEAAAA | -0.0753 |
| HMAVNQEFKNTINRIKYEYSLNQSQIADRLGVKKTYLSDMINGRVPYNETMNKKVNDVFPLPP | ≥ 0.43 |
| HMAVPTHVEFPVVGLQRSGITSLEQAIATVPGVSKAVVNVSDNRIFVDYDPTRSKVSDLLEVVRGAGFTP | -0.222 |
| HMAVQAESDIIKRAALLRNLGNTSMQLKNIDQAIDFYKQGIKLHPEDAELKYNLSQALRQKSQSNN | 0.186 |

| Sequence | soluble fraction (log2) |
| --- | --- |
| HMAVQEDAGLAREDLPPEVQGLLQEREAARAAKDWGKSDALRRQLQDLGYAIKDTAQGMEIKRT | 0.101 |
| HMAVRNTKQKQLVLSLLKNSGRPMTAGEIYRLAVQQYPNIAKSTVYRNLENLVSRGEVSQGMHQNGESFYS | ≥ 0.43 |
| HMAVSPEEQKKRIIELFRNRNEVSFKEIFDLPTKGHFVITLLAVLDLARQQIVIMEQLENEGIIKFTKGA | -0.232 |
| HMAVSSHAVKQRIRSLIQAEDPAAPLSDEALRLALSALGVDVSRRVIAKYRAELNIPSSSQRKK | 0.213 |
| HMAVSVPDVMGLTYEEAYNKITAEGLLVNRLESYTGLVEKGRVISQLPVGGEPAAKGSTVNVNVSL | -0.139 |
| HMAVTFPYTAYATDAVRLRERPSSSADVLAVIRKGDAVLVTGTDGNYAIVDYEGKRGYVVSSFIAT | -0.159 |
| HMAVWRIKVNYIPGYGVNIWSSYKNGHFTGKRAMHGETYEVLETKKDQDGNTWYKLDDHQWIEGRYAINAK | -0.88 |
| HMAYMETIERVEALAPGTKFNLKALFGTDWTQSRGTKLTLGKTFYEMVESGYVKTAKVLGKDSSNIMQYER | -0.0837 |
| HMAYSEEERNLIRSRLKDVAAALFKEKGIRDTNIDEIYTPVGISKTFFYSFFPSKAVLAIAIMK | -0.267 |
| HMAYVDWYENKQPTHEEAFKKLLGRIHPGAIVLLHSTSKTNGEILDELLTKWEEMGYRFGTLDELTGN | -1.14 |
| HMDAATDAIKAEVRALLEMANAQGIDTESIMLEAHEQTRNATEQDYYEAAKSALEAAIAGSNRDR | -0.319 |
| HMDADGEPIKLDQIGISHLSFTVADVKSLGEELVAKGVKLAAPMEAFTSPEGRISSIFVYDPDGILLQFDD | -0.123 |
| HMDADRLSPREREMLQFIARGQSNKEIARALELAESTVKIHVQNMLRKLNLSSRVQAAVFAVENGLG | 0.302 |
| HMDAGLAEIIRSFEDNLGGFPPAAREDLLGWREIFTDDLILLAIKKAALAGVRKWSYVNGILKVWKNEGVR | -1.09 |
| HMDAHYMEMKGKTGTAFTMLRPAGKIDIEGQIFDAVAEAGFIEKGEAIRVVKYENAQLIVRK | -0.32 |
| HMDAIAYLGSRLKEIRLKSGLSLREIARQLDVSPSFISQIENGKSQPSVATLYAFAKLLNVPVDVLFQPS | -0.455 |
| HMDAKNNPQVMAQIRAILTAKGLSEDEVKTRLKTKNIDVDKMTDQEIIAQRPAIEAIINEMEQEKKQKMG | 0.142 |
| HMDALPLIQLEKEIKDFISQGQKINAIKHYRNVMDRDFGTTISLKLAKYTVDALAQNIKVDLTKGYDQ | -0.852 |
| HMDALTLSIDAQGALYWNGQPVSRELAAQRFVEAAAQRPQPELHLRADQNVAYRHVAMTLADASRAGLTR | -0.632 |
| HMDANAYTYKVSEDTDTRTGEKIFLVKVAEKLSRKEYIVVNNYMKSLGSYYSKFKHAFLFKENPTEKL | -0.246 |
| HMDANLGEIFKVYEQEIGALTPFVREEMLDAIDHYPRDWILDAIRESAKSNARNWKYTLAILKRWKAEG | -0.507 |
| HMDAPIIRLLNSLVQRAVTTTASDIHIEPFEGETKVRMRIDGVIIDYVTLQRALHQPLIARIKIMSNLD | -0.237 |
| HMDAPKTGSLVVSKAVNYGSWSGFTFRLHGTSDKGNSVDVTATTGSDGKAYFKDIEIGTYTLEEVN | -1.19 |
| HMDAQEAAWARKMMETLPEKQKLSVALRIEEGLSFKEIGEIIGSSEGAARVNYFHGIRRLRELL | -0.768 |
| HMDAQNLQDQLFGFLKANPTQAYPAQTLADGLRLDDANAFTKVVQALAALERGGKVKVNEEGAFQYDAEK | -0.0669 |

| Sequence | soluble fraction (log2) |
| --- | --- |
| HMDARSTHIAAIHVLKSKLQLQDSDYRALLLTLTGQTSSKDLSEHQRRAVRNHMQQLAERMGVVQ | 0.0263 |
| HMDATFKVRVSVPDLNIRSGPGTNYAATGRFTGVGVFTITAVQSGQGSSSGWGKLKSGAGWIALDYAKR | 0.341 |
| HMDATIGGFKITDSAIYSGVKNNVNAGVRGTYIDKDGQIAFGDSNSYLKYYKDTDGKWKLEVSASSVKF | -0.476 |
| HMDAVDKDGNHMTFKKWSEQLQEAFHALELYDTTRAKQILSELVKFQVDSDITKSLKAIITNIDDMMA | -1.5 |
| HMDAYDEVTTLSQMVASGKNTTVAHLKHLKEYHQTDYLRQAVEWLLSNRKNVSFSVDEVMQEVHN | -0.434 |
| HMDAYLPETVQKLLDVMDFDVPYSAAQLMEKLGLKSRASFRKLYLLPALEKNLIAMGVPDKPTSRNQTYIR | 0.169 |
| HMDAYSYFIRTYPLVDDPLIGDIRRIFAETHDGNPAGDADVRHILWRLLFERELYPTLDEATADWY | -1.86 |
| HMDDEAVQIMTLHISKGLEFDVVFALGLVSRTPESKEIEELEAEKQRQLYVAMTRAEKWLIVAA | 0.22 |
| HMDDEDLAFLQREFVSYQQAMDYYGLGYKPVVRLSHISGSVYKIGKKVLIRRNIFEEYLRNHV | -0.666 |
| HMDDFGERLRKLRVAQDLTQQQLGEKLGVVPSTIGKYEKVKDSYPSIEVLIKLSDFFSVSTDYLLKG | -0.905 |
| HMDDFTEVLLQYLKDHDGYSSIHDKTDAETIYNTFGVSKKTFKKAVGDLYKKRLIVLEEEGIRLLG | -0.586 |
| HMDDISLEEIKYISSKLETKVNEIEELLVRYYDGETNEAEEKELKEFFAQADVPAHLLAEKRLFMQLASQ | -0.324 |
| HMDDKVGKVFNYVQEKILTGEWDIGDKITPEISLSKELGVSRSVVREAIKKFVALNILSRTQGGGTYVNNL | -0.621 |
| HMDDNMNEQWKMILNSIAKKGSVTRQETEKILGIGQTRAHVLLKAMIHAGMIKAVGDGKKRRYVR | ≥ 0.43 |
| HMDDNRSLSDLAQQVFKRENIQVSRDTLSLLVSRLGSDRAVSRQEIEKLALFAGSNGKLTEEDIHNALG | -0.195 |
| HMDDPISSMVNRIRLAFGLSVTDLAAVLGVERPTIYSWLKDGSTPAPARLTRVRQVLSLADTW | ≥ 0.43 |
| HMDDPITVAYRETEDAIAQVQREGFPVEMPPANSYIRRIQHELAGRFNLDSESYGDEPERRVRIRPQQ | -0.92 |
| HMDDPTVILFDPKNGQRKIVKWKAGLTLYSARRSAGISSAAEATIQRAGKSLSGRTATALEPGDVIRW | 0.203 |
| HMDDSSLFGRHTGIGFIVDDIDSGYQTLLAKGVSFEMPPTEQPWGGILALMKDPDGNIFYLD | -0.488 |
| HMDDTRLLSEIGLSQRVLNALRARGIERVGQVLAMRPDQLLGIRNFGPRALQELRERLQENGYTEGPLFSG | -0.252 |
| HMDDVIDVYATYDVSPTNQISNIKLYSDAAHANPVTGEAGKSYNDITEGHPGYQFRWSGTTWVPI | 0.0332 |
| HMDDVIEVEGKVVEVLPNTKFIVELANSHKITAHISGKLRMNYIRIMKGDNVTVEMSPYDLTKGRIIWRS | -0.167 |
| HMDDVVVLPFTAEFARMSSDDFVREILVGKIGMKRFVVGYNHRFGSGQQGDFASLQRMQGELGFVAVRVG | -0.479 |
| HMDDVYMVPVKDIAINDLKQEFEKLGIPNIQNTIPDKDLNFFIVRKDDLALVNYAIEKTMER | -0.523 |
| HMDEAETELIRRMVSEHPPTTKRERDIVQMRLRGYLFVEIGEAYGISFQRAAQIYNAAVEKIKEYWD | -0.454 |
